Measured values reported in patent US20150106963A1.

Target: porcine cytochrome P450 17A1 (CYP17A1), wild type (pig (Sus scrofa)) (UniProt P19100)
Assay: cell-based or functional assay
Conditions: scale: ratio

Chain of UniProt P19100 (P19100 whole entry H407L, form in doubt): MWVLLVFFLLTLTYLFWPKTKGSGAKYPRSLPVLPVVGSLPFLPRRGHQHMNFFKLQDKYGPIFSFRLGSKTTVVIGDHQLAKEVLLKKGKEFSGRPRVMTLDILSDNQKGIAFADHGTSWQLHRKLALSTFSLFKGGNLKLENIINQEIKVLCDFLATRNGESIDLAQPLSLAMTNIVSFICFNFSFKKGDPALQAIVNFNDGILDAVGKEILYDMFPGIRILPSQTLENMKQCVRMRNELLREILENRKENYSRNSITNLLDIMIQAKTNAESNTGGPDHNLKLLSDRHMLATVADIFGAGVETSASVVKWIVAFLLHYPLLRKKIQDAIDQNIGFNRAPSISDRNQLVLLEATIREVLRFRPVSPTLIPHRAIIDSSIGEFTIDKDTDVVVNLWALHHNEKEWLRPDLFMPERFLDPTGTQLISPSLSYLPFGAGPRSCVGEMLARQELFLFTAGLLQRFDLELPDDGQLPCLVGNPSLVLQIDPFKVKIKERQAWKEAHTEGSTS

For “porcine cytochrome b5 type A double mutant CYB5A-N21K+L28V (from UniProt P00172 2-134)”, which Overall conversion (ratio of activity with b5/activity without b5), pregnenolone metabolism in transfected HEK-293 cells is on record?
The Overall conversion (ratio of activity with b5/activity without b5), pregnenolone metabolism in transfected HEK-293 cells was 1.05.

For “porcine cytochrome b5 type A double mutant CYB5A-R52M+N62S (from UniProt P00172 2-134)”, which Overall conversion (ratio of activity with b5/activity without b5), pregnenolone metabolism in transfected HEK-293 cells is on record?
Its Overall conversion (ratio of activity with b5/activity without b5), pregnenolone metabolism in transfected HEK-293 cells is 0.957.

With “porcine cytochrome b5 type A mutant CYB5A-G57R (from UniProt P00172 2-134)” as the substance, how does the Overall conversion (ratio of activity with b5/activity without b5), pregnenolone metabolism in transfected HEK-293 cells read?
The Overall conversion (ratio of activity with b5/activity without b5), pregnenolone metabolism in transfected HEK-293 cells was 0.865.

Which Overall conversion (ratio of activity with b5/activity without b5), pregnenolone metabolism in transfected HEK-293 cells does the source give for “porcine cytochrome b5 type A mutant CYB5A-L28V (from UniProt P00172 2-134)” here?
The Overall conversion (ratio of activity with b5/activity without b5), pregnenolone metabolism in transfected HEK-293 cells was 1.2.

How did the Overall conversion (ratio of activity with b5/activity without b5), pregnenolone metabolism in transfected HEK-293 cells turn out when “porcine cytochrome b5 type A mutant CYB5A-N21K (from UniProt P00172 2-134)” was run?
Its Overall conversion (ratio of activity with b5/activity without b5), pregnenolone metabolism in transfected HEK-293 cells is 1.36.

With “porcine cytochrome b5 type A mutant CYB5A-N62S (from UniProt P00172 2-134)” as the substance, how does the Overall conversion (ratio of activity with b5/activity without b5), pregnenolone metabolism in transfected HEK-293 cells read?
Its Overall conversion (ratio of activity with b5/activity without b5), pregnenolone metabolism in transfected HEK-293 cells is 2.16.

For “porcine cytochrome b5 type A mutant CYB5A-QM R52M/G57R/N62S/T70S (from UniProt P00172 2-134)”, which Overall conversion (ratio of activity with b5/activity without b5), pregnenolone metabolism in transfected HEK-293 cells is on record?
The Overall conversion (ratio of activity with b5/activity without b5), pregnenolone metabolism in transfected HEK-293 cells was 1.4.

With “porcine cytochrome b5 type A mutant CYB5A-R52M (from UniProt P00172 2-134)” as the substance, how does the Overall conversion (ratio of activity with b5/activity without b5), pregnenolone metabolism in transfected HEK-293 cells read?
The Overall conversion (ratio of activity with b5/activity without b5), pregnenolone metabolism in transfected HEK-293 cells was 0.765.

How did the Overall conversion (ratio of activity with b5/activity without b5), pregnenolone metabolism in transfected HEK-293 cells turn out when “porcine cytochrome b5 type A mutant CYB5A-T70S (from UniProt P00172 2-134)” was run?
Its Overall conversion (ratio of activity with b5/activity without b5), pregnenolone metabolism in transfected HEK-293 cells is 1.09.
